Data on 10 molecules can be found in patent US20140287419A1, “Compositions Having Dicamba Decarboxylase Activity and Methods of Use” (priority 2013, published 2014).

B1: 21 (protein, listed as Agrobacterium tumefaciens)
chain: MAQGKVALEEHFAIPETLQDSAGFVPGDYWKELQHRLLDIQDTRLKLMDAHGIETMILSLNAPAVQAIPDRKKAIEIARRANDVLAEECARRPDRFLAFAALPLQDPDAATQELQRCVNDLGFVGALVNGFSQEGDGQTPLYYDLPQYRPFWGEVEKLDVPFYLHPRNPLPQDSRIYDGHPWLLGPTWAFAQETAVHALRLMASGLFDAHPRLNIILGHMGEGLPYMMWRIDHRNAWVKLPPRYPAKRRFVDYFNENFHITTSGNFRTQTLIDAILEIGADRILFSTDWPFENIDHASDWFNATTIAEADRVKIGRTNARRLFKLDGR
B2: 29 (protein, listed as Pseudovibrio sp.)
chain: MAGRRDFLRKSVAAGVGLTAAAQLSAGGAQATVPDTSNIPLITLEEHFTTPELQSKNTSGDKRLFSGGGSRPELLDVGAGRIADMDEAGIDIQVLSTVTPGASKITGAEGVEFTRKFNTWIAEEVIAAYPNRFRAFATLPLSSPEAAADELERSVREYGFVGTMTYGPIDGKFLDHADYAPLLARAEALGVPIYIHPNWPSPTAMQAYYDGLGDDLTSRILSGPGYGWHQEIAVQCLRLIVGGVFDRFPNLQIVVGHMGEGLPFYYWRVGEDLDRIAQKRLQKPVQQYFHDNLWITTSAFFRDELLNLALATMGEDRVMFSVDYPMASAKVGADWLRAADIPLATKEKIGSKNAMKLLGIDKI
B3: 26 (protein, listed as Variovorax paradoxus)
chain: MATHMAPMKNKIALEEHFAIDLTIADSQVYARPEVWQGLKSNLLDFEQQRLEKMDEWGTEFSILSLNSPAVQGIPDAKRAIEVAQRANDVLAEQVKRHPTRFGGFAALPMQDPEASARELERCVNQLGFHGFLVNGFSQVGDENIVVYYDDARFNDFWTAAAALKKPFYMHPRDPLLAREPIYDGAHWLTGPTWAFAMETAIHALRLMSSGMFDRHPALQMILGHFGEGIPFNIWRVDHILRKGRRGMPCDKEIGEYLRSNVHITTSGNFRTPTLLSTMLEVGSDRIMYSVDYPFEKHEDAARWFDTCEISENDRQKIGRDNARKLFGLK
B4: 22 (protein, listed as Staphylococcus epidermidis)
chain: MAKSINFEEHYVVDDIQKETMKYMSSDPNGVPMQTMLKGLEQKSGFTNADDITKHDERIKFMDEHDVEMQVLSYGNGAPSNLEGERAIELCQQANDTLAKYVNEHPDRFVGFATLPINEPQAAVEEFKRCIKELGFKGALIMGHPKNGFLDQDQYDDLFATAEALNVPIYLHPSPVQSDVYQAYYKGNYSDVTAATFACFGYGWHVDVGIHAIHLVLSGVFDRHPNLNMIIGHWGEFVPFFLERMDDILFADHLEHPISYYFKNNFYITPSGMLTKPQFDLVKAEVGVDRILYSADYPYVEPDKLGTFLDELDLTEEEKEKISYKNGAKLLGLEK
B5: 28 (protein, listed as Sphingomonas paucimobilis)
chain: MARLIATEEAVTFQPVVDALRAHSRTDDASLDMILVRDVYGDEPARPAMIGRLSDVTGERLAEMDSNGVDMHLLSLTAPGVQMFDAETGTRLARIANDLMAQTVAANPTRFAGLGTFAPQDPASAAREIERVATQLRLNGLVINSHTNDLYYDDPFFHPVFEAIEASGLALYIHPRAPSKQIDRAFRDYGMNSAIWGYGIETSTNAVRMILSGLFDRFPRLKIVLGHMGEAIPFWLWRLDYMHGNATTFGGAPKLKLKPSEYFRRNFAITTSGVESHAALRYSIEVLGPENVMWAIDYPYQPMAPAVQFIRTAPIPEDVKAMVAGGNAARIFRIT
B6: 25 (protein, listed as Acidovorax avenae)
chain: MAQGKIGLEEHFAIPETLQDSAGFVPGDYWKELSLRLLDIHERRLREMDENGMEMMILSLNAPAVQAIPDTKKAVEIAVRANDFLAEQVARRPDRFQAFAALPMQDPDLATRELERCMQDLGFRGALVNGFSQVGTPENVVYYDAPQYGDFWAAVERLDAPFYLHPRNPIASWAQIYQGHPWLMGPTWAFAQETAVHALRLMASGLFDRHPGLRIILGHLGEGLPYNMWRVDHRNAWVDMPKGYPAKRKLCDYFHENFYLTTSGNFRTQTLIDALLEVGADRILFSTDWPFENVDHAAHWFDDAAISEADRLKIGRTNALSLFKLPQG
B7: 20 (protein, listed as Legionella pneumophila)
chain: MAIVDFETHFITEACIDYLTQRQEVPKLVPDLNGAYTMCFTPDVSLFHTSALMEELLSLNEQRLAIMDQAGVTIQVLSLTTINGIDSCPGDENKSTALAREVNDQLYSAIQRHPERFKGFASISPYDVKEGVKELERAISQLGFVGWLTHSNFGQDNYLDDKTYWPLLEAAEGLNIPIYLHPNVPIMREFGKYGFALGGSALGFEFDTALCLMRMILGGVFDAFPKLKIMLGHLGETMPFLMERLDHLYRIPDLKAYRPSIQRIPSEVLRQNVYITTSGRFFVPALRYVLEVMGEDRVLFASDYPMESLLDATRFIQDSDLSNQTKQKIFSINAKNLNLI
B8: 23 (protein, listed as Aplysina aerophoba)
chain: MAIDIDARSQPGLETARRAMSRRDFLGGAAAFGITAAATTALPASTAAGEEEDLFLLGLEEHFATAELRRLNGIQFPQGTPRFDINDVGAGRIADMDAAGIDIQVLSALTPGAQNLPGAEGVAYARRLNSWVAHEVIPAYPGRFRAFATLPLSEPQAAADELEYAVRELGFLGCMTYGAVDGKFLDHADFVPVLARAETLDVPIYIHPNWASPQVMDTYYNGLGNEWVSRVLSGAGYGWHQEVALQCLRMIASGVFDRFPRLQIIVGHMGEGLPFFYWRFGDDLARITADTLEKPVQQYFHDNFWITTSAFFRDELLRLVLSVMGEDRVMFAVDYPFVSNKVGADWFRAVDLPRNVKEKIAHKNAERLLKIGPF
B9: 27 (protein, listed as Aspergillus oryzae)
chain: MALGKIALEEAFALPRFEEKTRWWASLFSTDAETHVKEITDINKIRIEHADKHGVGYQILSYTAPGVQDIWDPVEAQALAVEINDYIAEQVRVNPDRFGAFATLSMHNPKEAADELRRCVEKYGFKGALVNDTQRAGPDGDDMIFYDNADWDIFWQTCTELDVPFYMHPRNPTGTIYEKLWADRKWLVGPPLSFAHGVSLHVLGMVTNGVFDRHPKLQIIMGHLGEHVPFDMWRINHWFEDRKKLLGLAETCKKTIRDYFAENIWITTSGHFSTTTLNFCMAEVGSDRILFSIDYPFETFSDACEWFDNAELNGTDRLKIGRENAKKLFKLDSYKDSSA
B10: 24 (protein)
chain: MALGKVVLEEAYERPNMKEKSNHEAGLYIAPNDRPRYMRQINDINQERLKLADAHGVGYTIISLTVPGIQGIFDKTEAERVATETNNWAAEQIKNHRDRLGAFACLSMHDPAQAANELRRCVQELGFHGALLCSFQHAGPDGETYLFYDQPKYDVFWKALTELDVPLYIHPAAPTGSILERLYAQRPALIGPPLSFANDVSLHTLGIISNGVFDRFPNLKIIIGHLGEHIPFDFWRIDHWFRDVKKPIADEEGRVMAQKSLYHYFKHNIWLTTSGHFSTPTLKYVVNEIGVDRVLFSVDYPYETTESGCNWWDHDKDAIVEAVGGVDNYYAIGRENAKKLLRLDKFHDSDAR
modifications: Aspergillus niger

The first data set is described as follows: 14C assay with IPTG-induced recombinant E. coli cells (14CO2 capture from [14C]-carboxyl-labeled dicamba). As to conditions: IPTG-induced recombinant E. coli cells; [14C]-carboxyl-labeled dicamba; 14CO2 capture.
Regarding B1, the “Dicamba Decarboxylase Activity” value is “High”.

As for B2, the “Dicamba Decarboxylase Activity” value was “No”.

As for B3, the “Dicamba Decarboxylase Activity” value is reported as “High”.

Turning to B4, the “Dicamba Decarboxylase Activity” value is listed as “High”.

For the molecule B5, the “Dicamba Decarboxylase Activity” value was “High”.

Turning to B6, the “Dicamba Decarboxylase Activity” value is “Low”.

For the molecule B7, the “Dicamba Decarboxylase Activity” value is “Low”.

In the case of B8, the “Dicamba Decarboxylase Activity” value is “Low”.

Turning to B9, the “Dicamba Decarboxylase Activity” value was “No”.

Turning to B10, the “Dicamba Decarboxylase Activity” value is recorded as “Low”.

Staying with this data set, now noted: dicamba decarboxylation activity of the protein of the given SEQ ID NO.
As for B1, the “Enzymatic Detection level” value is on record as “High”.

As for B2, the “Enzymatic Detection level” value is listed as “No”.

As to B3, the “Enzymatic Detection level” value was “High”.

As for B4, the “Enzymatic Detection level” value was “High”.

For the molecule B5, the “Enzymatic Detection level” value is listed as “High”.

Turning to B6, the “Enzymatic Detection level” value is listed as “Low”.

On to B7, for which the “Enzymatic Detection level” value is given as “Low”.

As for B8, the “Enzymatic Detection level” value is “Low”.

For the molecule B9, the “Enzymatic Detection level” value is on record as “No”.

With B10, the “Enzymatic Detection level” value is “Low”.
